Here are results for 2 molecules from paper PMC3654228 (Nature communications, 2012).

The target of one data set is T1, GST-RBD-psiRRM-LRR (Homo sapiens, UniProt Q9UBU9 1-372).
T1 sequence: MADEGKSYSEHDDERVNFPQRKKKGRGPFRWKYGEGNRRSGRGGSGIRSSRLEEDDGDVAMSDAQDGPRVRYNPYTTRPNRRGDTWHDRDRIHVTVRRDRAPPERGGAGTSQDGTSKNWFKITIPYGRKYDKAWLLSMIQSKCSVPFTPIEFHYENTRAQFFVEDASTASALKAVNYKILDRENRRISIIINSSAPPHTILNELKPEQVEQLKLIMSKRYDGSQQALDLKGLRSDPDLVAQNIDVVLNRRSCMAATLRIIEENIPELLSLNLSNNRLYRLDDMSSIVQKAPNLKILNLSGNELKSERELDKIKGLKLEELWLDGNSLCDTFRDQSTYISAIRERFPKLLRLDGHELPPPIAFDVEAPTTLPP
The data set is described as follows: UV crosslinking.

The target of a further data set is GST-Nxf1:p15;Aly (Homo sapiens;, UniProt Q9UBU9;Q9UKK6;Q9JJW6 1-619;1-140;1-218, |). As to the kind of experiment: GST pulldown then UV crosslinking.
The target of a further data set is GST-Nxf1:p15;Aly;Thoc5 (Homo sapiens;;Homo sapiens?, UniProt Q9UBU9;Q9UKK6;Q9JJW6;Q13769 1-619;1-140;1-218;1-683, ||). The data set is described as follows: GST pulldown then UV crosslinking.
Another data set has as its target Aly (UniProt Q9JJW6 1-218). The data set is described as follows: UV crosslinking.
The target of a further data set is T2, 6His-RBD-psiRRM-LRR (Homo sapiens, UniProt Q9UBU9 1-372).
T2 sequence: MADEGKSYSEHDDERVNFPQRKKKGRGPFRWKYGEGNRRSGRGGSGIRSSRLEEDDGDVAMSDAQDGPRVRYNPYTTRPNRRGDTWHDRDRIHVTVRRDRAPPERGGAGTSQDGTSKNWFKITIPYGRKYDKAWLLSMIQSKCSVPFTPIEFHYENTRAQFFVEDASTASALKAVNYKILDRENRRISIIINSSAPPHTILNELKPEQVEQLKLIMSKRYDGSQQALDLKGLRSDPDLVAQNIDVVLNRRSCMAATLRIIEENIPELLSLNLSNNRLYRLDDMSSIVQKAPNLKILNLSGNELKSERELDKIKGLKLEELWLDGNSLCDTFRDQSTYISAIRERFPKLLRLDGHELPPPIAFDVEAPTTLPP
The data set is described as follows: UV crosslinking.

For data set [1], the target named is T3, Nxf1 (of the Nxf1:p15 used for gel filtration) (human, UniProt Q9UBU9 1-619).
T3 sequence (looked up): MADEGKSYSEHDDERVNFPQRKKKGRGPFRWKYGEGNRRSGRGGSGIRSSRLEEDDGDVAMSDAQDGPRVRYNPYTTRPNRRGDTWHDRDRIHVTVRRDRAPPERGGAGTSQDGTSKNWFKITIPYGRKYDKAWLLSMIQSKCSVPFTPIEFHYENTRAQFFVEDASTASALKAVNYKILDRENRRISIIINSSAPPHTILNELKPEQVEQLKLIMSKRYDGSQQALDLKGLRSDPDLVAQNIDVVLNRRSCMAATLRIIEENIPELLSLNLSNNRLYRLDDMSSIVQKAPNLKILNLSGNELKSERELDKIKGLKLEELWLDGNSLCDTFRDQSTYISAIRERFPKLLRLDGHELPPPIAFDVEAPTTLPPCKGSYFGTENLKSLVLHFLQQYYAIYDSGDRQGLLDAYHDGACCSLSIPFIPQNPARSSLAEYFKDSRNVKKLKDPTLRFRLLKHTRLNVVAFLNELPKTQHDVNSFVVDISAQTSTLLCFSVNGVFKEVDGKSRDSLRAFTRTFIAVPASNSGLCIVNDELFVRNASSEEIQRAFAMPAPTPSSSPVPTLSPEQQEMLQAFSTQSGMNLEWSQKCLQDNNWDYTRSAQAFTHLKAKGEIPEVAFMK
As to the kind of experiment: SEC.

For the molecule CAGUCGCAUAGUGCA (ssRNA) [15-mer RNA], the binding result with GST-RBD-psiRRM-LRR, in the data set with GST-Nxf1:p15;Aly, with GST-Nxf1:p15;Aly;Thoc5, with Aly and with 6His-RBD-psiRRM-LRR was “binds” throughout.

B1: p15 (natural protein)
chain: MASVDFKTYVDQACRAAEEFVNVYYTTMDKRRRLLSRLYMGTATLVWNGNAVSGQESLSEFFEMLPSSEFQISVVDCQPVHDEATPSQTTVLVVICGSVKFEGNKQRDFNQNFILTAQASPSNTVWKIASDCFRFQDWAS
Consider B1, for which, in data set [1], the stoichiometry N (usually a count of units in the complex or per binding partner) is 1.
